Molecular target: T1, GST-fusion HMGB1 protein (Wister rat HMGB1, full length, expressed from pGEX-3X) (rat (Wister), UniProt P63159 2-215)
T1 construct: mature; GST served as the negative control protein in screening; also called HMGB1 solid-phase plate; not shown: glutathione S-transferase (GST) tag of the pGEX-3X vector
T1 sequence (looked up): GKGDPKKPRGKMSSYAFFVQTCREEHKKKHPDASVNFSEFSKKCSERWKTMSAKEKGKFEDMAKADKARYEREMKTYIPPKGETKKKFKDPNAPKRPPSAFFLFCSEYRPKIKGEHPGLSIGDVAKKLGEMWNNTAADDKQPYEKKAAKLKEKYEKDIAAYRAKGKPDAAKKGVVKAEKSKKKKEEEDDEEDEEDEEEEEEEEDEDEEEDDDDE
Test: ELISA on GST-fusion HMGB1 and SPR (FIGS. 1A and 1B)
Description: Then, to select anti-HMGB1 monoclonal antibodies, the ELISA method was carried out as described below. First, part of the culture solution after 2 weeks was sampled and added in […] to a microplate in which 250 ng/well of the HMGB1 protein or the negative control protein (GST) was immobilized. Subsequently, reaction was carried out at room temperature for 1 hour, followed by washing with PBS three times. A secondary antibody (HRP-labeled anti-mouse IgG, manufactured by MEDICAL & BIOLOGICAL LABORATORIES CO., LTD., code number 330) was diluted in accordance with the package insert and added in 50 μL/well, which was reacted for one hour at room temperature, followed by washing with PBS three times after the reaction. Thereafter, a TMB reagent (MOSS, Inc., Chicago, Ill., USA, USA) was added in 50 μL/well, followed by enzyme chromogenic reaction for 15 minutes. Subsequently, after the enzyme reaction was stopped with 1.5 N phosphoric acid, the absorbance was measured with a plate reader with 450 nm (reference 630 nm) to select clones that reacts specifically with the HMGB1 solid-phase plate, establishing anti-HMGB1 monoclonal antibodies.

B1: anti-HMGB1 monoclonal antibody (2C8C) (antibody, V domains shown)
VH: QVQLQQSGPELVKPGASVKLSCKASGYTFTDYTIHWVKQSPGQGLEWIGWIYPGSGNTKYNDKFKGKATMTADKSSSTAYMQLSSLTSEDSAVYFCARGFAYWGQGTLVTVSA
VL: DIVLTQSPATLSVTPGDSVSLSCRASQSISNNLHWYQQKSHESPRLLIKYASQSISGIPSRFSGSGSGTDFTLSINSVETEDFGMYFCQQTNSWPLTFGAGTKLELK
notes: also called 2C8C antibody; clone 2C8C
Does B1 bind?
Result: binds

— patent publication US20190211092A1 (NATIONAL UNIVERSITY CORPORATION TOKYO MEDICAL AND DENTAL …, published 2019)
